“And” between values parts separate entries of the source, which are not always exact repeats. Identical values can stand only once. Starred links: 1 amine or outer side, 2 acyl side, 3 side chain; linkers in the order of their positions; H or OH if unused. Positions of bridges follow the written chain, without caps; N, C: chain ends. Non-standard residues stand in square brackets, D forms with d. PyrS2 = (S)-3-amino-1-((pent-4-en-1-yloxy)carbonyl)pyrrolidine-3-carboxylic acid, C=CCCCOC(=O)N1CC[C@@](N[*:1])(C(=O)[*:2])C1; B5 = 2-amino-2-(pent-4-en-1-yl)hept-6-enoic acid, C=CCCCC(CCCC=C)(N[*:1])C(=O)[*:2]; Bta = N[C@@H](Cc1csc2ccccc12)C(=O)O; αAllylPro = C=CC[C@@]1(C(=O)O)CCCN1; tBuAla = CC(C)(C)C[C@H](N)C(=O)O; 3Thi = N[C@@H](Cc1ccsc1)C(=O)O
Columns and labels:
[1] = target: beta-catenin-Halo (NanoBRET construct expressed in HEK293 cells) (Homo sapiens (Human)) (UniProt P35222); test: NanoBRET, HEK293 cells with Bcat-Halo and TCF4-Luc; plate row E (2.5 uM by plate map), plate column 5
[2] = target: full-length beta-Catenin (Uniprot ID P35222) (Homo sapiens (Human)) (UniProt P35222); test: fluorescence polarization competition: peptide titrated against 10 nM full-length beta-catenin + 10 nM 5FAM-TCF4(10-53) probe
[3] = target: beta-catenin-Halo NanoBRET construct (Homo sapiens (Human)) (UniProt P35222); test: NanoBRET, Bcat-Halo/TCF4-Luc in HEK293 cells; peptide 20 uM; replicate 3; competitor TCF4-Luc
[4] = target: beta-catenin-Halo NanoBRET construct (Homo sapiens (Human)) (UniProt P35222); test: NanoBRET, Bcat-Halo/TCF4-Luc in HEK293 cells; peptide 0.625 uM; replicate 1; competitor TCF4-Luc
[5] = target: beta-catenin-Halo (NanoBRET construct expressed in HEK293 cells) (Homo sapiens (Human)) (UniProt P35222); test: NanoBRET, HEK293 cells with Bcat-Halo and TCF4-Luc; plate row B (20 uM by plate map), plate column 5
[6] = target: beta-catenin-Halo NanoBRET construct (Homo sapiens (Human)) (UniProt P35222); test: NanoBRET raw acceptor reading, Bcat-Halo/TCF4-Luc in HEK293 cells; plate row G (0.625 uM by plate map); competitor TCF4-Luc
[7] = target: beta-catenin-Halo (NanoBRET construct expressed in HEK293 cells) (Homo sapiens (Human)) (UniProt P35222); test: NanoBRET, HEK293 cells with Bcat-Halo and TCF4-Luc; plate row F (1.25 uM by plate map), plate column 5
[8] = target: beta-catenin-Halo (NanoBRET construct expressed in HEK293 cells) (Homo sapiens (Human)) (UniProt P35222); test: NanoBRET, HEK293 cells with Bcat-Halo and TCF4-Luc; plate row B (20 uM by plate map), plate column 7
[9] = target: beta-catenin-Halo NanoBRET construct (Homo sapiens (Human)) (UniProt P35222); test: NanoBRET, Bcat-Halo/TCF4-Luc in HEK293 cells; peptide 20 uM; replicate 1; competitor TCF4-Luc
[10] = target: beta-catenin-Halo (NanoBRET construct expressed in HEK293 cells) (Homo sapiens (Human)) (UniProt P35222); test: NanoBRET, HEK293 cells with Bcat-Halo and TCF4-Luc; plate row B (20 uM by plate map), plate column 6
[11] = target: beta-catenin-Halo (NanoBRET construct expressed in HEK293 cells) (Homo sapiens (Human)) (UniProt P35222); test: NanoBRET, HEK293 cells with Bcat-Halo and TCF4-Luc; plate row C (10 uM by plate map), plate column 7
[12] = target: beta-catenin-Halo NanoBRET construct (Homo sapiens (Human)) (UniProt P35222); test: NanoBRET, Bcat-Halo/TCF4-Luc in HEK293 cells; peptide 5 uM; replicate 1; competitor TCF4-Luc
[13] = target: beta-catenin-Halo NanoBRET construct (Homo sapiens (Human)) (UniProt P35222); test: NanoBRET, Bcat-Halo/TCF4-Luc in HEK293 cells; peptide 0.625 uM; replicate 2; competitor TCF4-Luc
[14] = target: beta-catenin-Halo NanoBRET construct (Homo sapiens (Human)) (UniProt P35222); test: NanoBRET raw acceptor reading, Bcat-Halo/TCF4-Luc in HEK293 cells; plate row E (2.5 uM by plate map); competitor TCF4-Luc
[15] = target: beta-catenin-Halo (NanoBRET construct expressed in HEK293 cells) (Homo sapiens (Human)) (UniProt P35222); test: NanoBRET, HEK293 cells with Bcat-Halo and TCF4-Luc; plate row D (5 uM by plate map), plate column 5
[16] = target: beta-catenin-Halo NanoBRET construct (Homo sapiens (Human)) (UniProt P35222); test: NanoBRET raw acceptor reading, Bcat-Halo/TCF4-Luc in HEK293 cells; plate row C (10 uM by plate map); competitor TCF4-Luc
[17] = target: beta-catenin-Halo (NanoBRET construct expressed in HEK293 cells) (Homo sapiens (Human)) (UniProt P35222); test: NanoBRET, HEK293 cells with Bcat-Halo and TCF4-Luc; plate row C (10 uM by plate map), plate column 5
[18] = target: beta-catenin-Halo NanoBRET construct (Homo sapiens (Human)) (UniProt P35222); test: NanoBRET, Bcat-Halo/TCF4-Luc in HEK293 cells; peptide 2.5 uM; replicate 3; competitor TCF4-Luc
[19] = target: beta-catenin-Halo (NanoBRET construct expressed in HEK293 cells) (Homo sapiens (Human)) (UniProt P35222); test: NanoBRET, HEK293 cells with Bcat-Halo and TCF4-Luc; plate row G (0.625 uM by plate map), plate column 7
[20] = target: beta-catenin-Halo (NanoBRET construct expressed in HEK293 cells) (Homo sapiens (Human)) (UniProt P35222); test: NanoBRET, HEK293 cells with Bcat-Halo and TCF4-Luc; plate row F (1.25 uM by plate map), plate column 6
[21] = target: beta-catenin-Halo NanoBRET construct (Homo sapiens (Human)) (UniProt P35222); test: NanoBRET raw acceptor reading, Bcat-Halo/TCF4-Luc in HEK293 cells; plate row B (20 uM by plate map); competitor TCF4-Luc
[22] = target: beta-catenin-Halo (NanoBRET construct expressed in HEK293 cells) (Homo sapiens (Human)) (UniProt P35222); test: NanoBRET, HEK293 cells with Bcat-Halo and TCF4-Luc; plate row G (0.625 uM by plate map), plate column 5
[23] = target: beta-catenin-Halo NanoBRET construct (Homo sapiens (Human)) (UniProt P35222); test: NanoBRET, Bcat-Halo/TCF4-Luc in HEK293 cells; peptide 10 uM; replicate 1; competitor TCF4-Luc
[24] = target: beta-catenin-Halo NanoBRET construct (Homo sapiens (Human)) (UniProt P35222); test: NanoBRET, Bcat-Halo/TCF4-Luc in HEK293 cells; peptide 5 uM; replicate 3; competitor TCF4-Luc
[25] = target: B-cat-Halo (beta-catenin HaloTag NanoBRET construct expressed in HEK293 cells) (UniProt P35222); test: NanoBRET in HEK293 cells, Bcat-Halo + TCF4-Luc, peptide at 10 uM
Chain of B-cat-Halo (beta-catenin HaloTag NanoBRET construct expressed in HEK293 cells) (P35222 whole entry): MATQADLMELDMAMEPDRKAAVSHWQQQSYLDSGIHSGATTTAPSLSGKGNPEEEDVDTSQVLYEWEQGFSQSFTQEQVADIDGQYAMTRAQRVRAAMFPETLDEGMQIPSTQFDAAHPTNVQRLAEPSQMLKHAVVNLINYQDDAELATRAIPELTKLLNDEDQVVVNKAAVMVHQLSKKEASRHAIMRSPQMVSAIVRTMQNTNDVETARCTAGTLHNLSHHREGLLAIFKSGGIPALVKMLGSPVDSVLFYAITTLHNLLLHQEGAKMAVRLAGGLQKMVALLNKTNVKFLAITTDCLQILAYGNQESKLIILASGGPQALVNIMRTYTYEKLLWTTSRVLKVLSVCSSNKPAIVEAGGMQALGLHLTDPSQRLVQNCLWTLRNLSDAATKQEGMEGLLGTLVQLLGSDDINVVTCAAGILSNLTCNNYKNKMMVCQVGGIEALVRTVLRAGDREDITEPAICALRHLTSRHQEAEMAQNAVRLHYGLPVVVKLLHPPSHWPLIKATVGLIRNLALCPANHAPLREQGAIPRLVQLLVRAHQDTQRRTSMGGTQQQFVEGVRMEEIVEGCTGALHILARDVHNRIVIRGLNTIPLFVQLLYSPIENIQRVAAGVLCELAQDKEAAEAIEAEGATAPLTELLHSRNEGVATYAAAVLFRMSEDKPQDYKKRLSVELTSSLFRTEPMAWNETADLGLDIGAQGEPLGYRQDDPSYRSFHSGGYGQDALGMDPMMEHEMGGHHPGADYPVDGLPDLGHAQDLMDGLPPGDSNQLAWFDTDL

Chain of beta-catenin-Halo NanoBRET construct (Homo sapiens (Human)) (P35222 whole entry): as above
Chain of beta-catenin-Halo (NanoBRET construct expressed in HEK293 cells) (Homo sapiens (Human)) (P35222 whole entry): as above
Chain of full-length beta-Catenin (Uniprot ID P35222) (Homo sapiens (Human)) (P35222 2-781 limits assumed): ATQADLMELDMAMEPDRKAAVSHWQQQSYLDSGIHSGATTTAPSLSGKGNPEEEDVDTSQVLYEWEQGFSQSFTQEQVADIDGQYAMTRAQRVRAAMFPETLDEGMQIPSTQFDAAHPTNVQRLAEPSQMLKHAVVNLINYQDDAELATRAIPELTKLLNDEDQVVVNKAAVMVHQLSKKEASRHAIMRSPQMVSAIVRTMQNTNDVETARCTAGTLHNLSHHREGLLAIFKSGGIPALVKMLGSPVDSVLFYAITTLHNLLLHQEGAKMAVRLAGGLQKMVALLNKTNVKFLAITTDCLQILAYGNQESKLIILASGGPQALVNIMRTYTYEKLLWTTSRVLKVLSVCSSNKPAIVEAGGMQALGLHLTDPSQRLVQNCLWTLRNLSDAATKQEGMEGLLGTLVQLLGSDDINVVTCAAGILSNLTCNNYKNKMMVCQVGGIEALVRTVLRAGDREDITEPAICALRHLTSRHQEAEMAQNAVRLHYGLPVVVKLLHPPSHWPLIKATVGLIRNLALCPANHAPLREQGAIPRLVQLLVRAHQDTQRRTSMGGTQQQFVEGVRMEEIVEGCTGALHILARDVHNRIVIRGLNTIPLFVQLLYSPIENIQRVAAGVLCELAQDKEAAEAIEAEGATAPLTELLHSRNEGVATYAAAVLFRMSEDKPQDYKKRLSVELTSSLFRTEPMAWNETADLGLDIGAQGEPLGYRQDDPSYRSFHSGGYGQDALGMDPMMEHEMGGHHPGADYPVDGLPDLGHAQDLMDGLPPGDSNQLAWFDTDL

NanoBRET donor emission 450 BP (raw reading) [1]: 34100
EC50 [2]: 10 µM
% Inhibition [3]: -19.5%
% Inhibition [4]: -56.5%
NanoBRET donor emission 450 BP (raw reading) [5]: 58500
Acceptor 600 LP emission [6]: 410 and 440 and 530
NanoBRET donor emission 450 BP (raw reading) [7]: 21800
NanoBRET donor emission 450 BP (raw reading) [8]: 48000
% Inhibition [9]: -36.7%
NanoBRET donor emission 450 BP (raw reading) [10]: 55900
NanoBRET donor emission 450 BP (raw reading) [11]: 40400
% Inhibition [12]: -16.9%
% Inhibition [13]: -6.9%
Acceptor 600 LP emission [14]: 460 and 220 and 510
NanoBRET donor emission 450 BP (raw reading) [15]: 38800
Acceptor 600 LP emission [16]: 790 and 350 and 470
NanoBRET donor emission 450 BP (raw reading) [17]: 58500
% Inhibition [18]: -11.7%
NanoBRET donor emission 450 BP (raw reading) [19]: 47600
NanoBRET donor emission 450 BP (raw reading) [20]: 34500
Acceptor 600 LP emission [21]: 860 and 660 and 640
NanoBRET donor emission 450 BP (raw reading) [22]: 25200
% Inhibition [23]: -21.7%
% Inhibition [24]: -18.6%
NanoBRET % inh @ 10 uM [25]: 4.3%
Binder: Ac-[αAllylPro]F[tBuAla][B5]DDAADN[PyrS2][3Thi][Bta]Q-NH2 (staple 1-4, 4-11) [I-797]

From patent publication US20240116985A1, “STAPLED PEPTIDES AND METHODS THEREOF” (priority 2020, published 2024)
